Laboratory results as given in US20170298395A1, “AUTOTROPHIC HYDROGEN BACTERIA AND USES THEREOF” (Ohio State Innovation Foundation, priority 2011, published 2017).
Like-named read-outs stand apart in the source and are kept apart here.

B1: G98R (protein)
chain: MSSFLRALTLRQLQIFVTVARHASFVRAAEELHLTQPAVSMQVKQLESVVGMALFERVKGQLTLTEPGDRLLHHASRILGEVKDAEEGLQAVKDVEQRSITIGLISTSKYFAPKLLAGFTALHPGVDLRIAEGNRETLLRLLQDNAIDLALMGRPPRELDAVSEPIAAHPHVLVASPRHPLHDAKGFDLQELRHETFLLREPGSGTRTVAEYMFRDHLFTPAKVITLGSNETIKQAVMAGMGISLLSLHTLGLELRTGEIGLLDVAGTPIERIWHVAHMSSKRLSPASESCRAYLLEHTAEFLGREYGGLMPGRRVA
B2: T232I (protein)
chain: MSSFLRALTLRQLQIFVTVARHASFVRAAEELHLTQPAVSMQVKQLESVVGMALFERVKGQLTLTEPGDRLLHHASRILGEVKDAEEGLQAVKDVEQGSITIGLISTSKYFAPKLLAGFTALHPGVDLRIAEGNRETLLRLLQDNAIDLALMGRPPRELDAVSEPIAAHPHVLVASPRHPLHDAKGFDLQELRHETFLLREPGSGTRTVAEYMFRDHLFTPAKVITLGSNEIIKQAVMAGMGISLLSLHTLGLELRTGEIGLLDVAGTPIERIWHVAHMSSKRLSPASESCRAYLLEHTAEFLGREYGGLMPGRRVA
B3: D148N (protein)
chain: MSSFLRALTLRQLQIFVTVARHASFVRAAEELHLTQPAVSMQVKQLESVVGMALFERVKGQLTLTEPGDRLLHHASRILGEVKDAEEGLQAVKDVEQGSITIGLISTSKYFAPKLLAGFTALHPGVDLRIAEGNRETLLRLLQDNAINLALMGRPPRELDAVSEPIAAHPHVLVASPRHPLHDAKGFDLQELRHETFLLREPGSGTRTVAEYMFRDHLFTPAKVITLGSNETIKQAVMAGMGISLLSLHTLGLELRTGEIGLLDVAGTPIERIWHVAHMSSKRLSPASESCRAYLLEHTAEFLGREYGGLMPGRRVA
B4: P269S/T299I (protein)
chain: MSSFLRALTLRQLQIFVTVARHASFVRAAEELHLTQPAVSMQVKQLESVVGMALFERVKGQLTLTEPGDRLLHHASRILGEVKDAEEGLQAVKDVEQGSITIGLISTSKYFAPKLLAGFTALHPGVDLRIAEGNRETLLRLLQDNAIDLALMGRPPRELDAVSEPIAAHPHVLVASPRHPLHDAKGFDLQELRHETFLLREPGSGTRTVAEYMFRDHLFTPAKVITLGSNETIKQAVMAGMGISLLSLHTLGLELRTGEIGLLDVAGTSIERIWHVAHMSSKRLSPASESCRAYLLEHIAEFLGREYGGLMPGRRVA
B5: G205D/G118D (protein)
chain: MSSFLRALTLRQLQIFVTVARHASFVRAAEELHLTQPAVSMQVKQLESVVGMALFERVKGQLTLTEPGDRLLHHASRILGEVKDAEEGLQAVKDVEQGSITIGLISTSKYFAPKLLADFTALHPGVDLRIAEGNRETLLRLLQDNAIDLALMGRPPRELDAVSEPIAAHPHVLVASPRHPLHDAKGFDLQELRHETFLLREPGSDTRTVAEYMFRDHLFTPAKVITLGSNETIKQAVMAGMGISLLSLHTLGLELRTGEIGLLDVAGTPIERIWHVAHMSSKRLSPASESCRAYLLEHTAEFLGREYGGLMPGRRVA
B6: G125S/V265M (protein)
chain: MSSFLRALTLRQLQIFVTVARHASFVRAAEELHLTQPAVSMQVKQLESVVGMALFERVKGQLTLTEPGDRLLHHASRILGEVKDAEEGLQAVKDVEQGSITIGLISTSKYFAPKLLAGFTALHPSVDLRIAEGNRETLLRLLQDNAIDLALMGRPPRELDAVSEPIAAHPHVLVASPRHPLHDAKGFDLQELRHETFLLREPGSGTRTVAEYMFRDHLFTPAKVITLGSNETIKQAVMAGMGISLLSLHTLGLELRTGEIGLLDMAGTPIERIWHVAHMSSKRLSPASESCRAYLLEHTAEFLGREYGGLMPGRRVA
B7: G125D (protein)
chain: MSSFLRALTLRQLQIFVTVARHASFVRAAEELHLTQPAVSMQVKQLESVVGMALFERVKGQLTLTEPGDRLLHHASRILGEVKDAEEGLQAVKDVEQGSITIGLISTSKYFAPKLLAGFTALHPDVDLRIAEGNRETLLRLLQDNAIDLALMGRPPRELDAVSEPIAAHPHVLVASPRHPLHDAKGFDLQELRHETFLLREPGSGTRTVAEYMFRDHLFTPAKVITLGSNETIKQAVMAGMGISLLSLHTLGLELRTGEIGLLDVAGTPIERIWHVAHMSSKRLSPASESCRAYLLEHTAEFLGREYGGLMPGRRVA
B8: E87K (protein)
chain: MSSFLRALTLRQLQIFVTVARHASFVRAAEELHLTQPAVSMQVKQLESVVGMALFERVKGQLTLTEPGDRLLHHASRILGEVKDAEKGLQAVKDVEQGSITIGLISTSKYFAPKLLAGFTALHPGVDLRIAEGNRETLLRLLQDNAIDLALMGRPPRELDAVSEPIAAHPHVLVASPRHPLHDAKGFDLQELRHETFLLREPGSGTRTVAEYMFRDHLFTPAKVITLGSNETIKQAVMAGMGISLLSLHTLGLELRTGEIGLLDVAGTPIERIWHVAHMSSKRLSPASESCRAYLLEHTAEFLGREYGGLMPGRRVA
B9: P221S/T299I (protein)
chain: MSSFLRALTLRQLQIFVTVARHASFVRAAEELHLTQPAVSMQVKQLESVVGMALFERVKGQLTLTEPGDRLLHHASRILGEVKDAEEGLQAVKDVEQGSITIGLISTSKYFAPKLLAGFTALHPGVDLRIAEGNRETLLRLLQDNAIDLALMGRPPRELDAVSEPIAAHPHVLVASPRHPLHDAKGFDLQELRHETFLLREPGSGTRTVAEYMFRDHLFTSAKVITLGSNETIKQAVMAGMGISLLSLHTLGLELRTGEIGLLDVAGTPIERIWHVAHMSSKRLSPASESCRAYLLEHIAEFLGREYGGLMPGRRVA
B10: G205D/R283H (protein)
chain: MSSFLRALTLRQLQIFVTVARHASFVRAAEELHLTQPAVSMQVKQLESVVGMALFERVKGQLTLTEPGDRLLHHASRILGEVKDAEEGLQAVKDVEQGSITIGLISTSKYFAPKLLAGFTALHPGVDLRIAEGNRETLLRLLQDNAIDLALMGRPPRELDAVSEPIAAHPHVLVASPRHPLHDAKGFDLQELRHETFLLREPGSDTRTVAEYMFRDHLFTPAKVITLGSNETIKQAVMAGMGISLLSLHTLGLELRTGEIGLLDVAGTPIERIWHVAHMSSKHLSPASESCRAYLLEHTAEFLGREYGGLMPGRRVA
B11: T232A (protein)
chain: MSSFLRALTLRQLQIFVTVARHASFVRAAEELHLTQPAVSMQVKQLESVVGMALFERVKGQLTLTEPGDRLLHHASRILGEVKDAEEGLQAVKDVEQGSITIGLISTSKYFAPKLLAGFTALHPGVDLRIAEGNRETLLRLLQDNAIDLALMGRPPRELDAVSEPIAAHPHVLVASPRHPLHDAKGFDLQELRHETFLLREPGSGTRTVAEYMFRDHLFTPAKVITLGSNEAIKQAVMAGMGISLLSLHTLGLELRTGEIGLLDVAGTPIERIWHVAHMSSKRLSPASESCRAYLLEHTAEFLGREYGGLMPGRRVA

Key:
cbb promoter [1] = assay type: binding, R. eutropha
RubisCO = assay type: cell-based, Ralstonia eutropha; conditions: for Chemoheterotrophic RubisCO activity: Table 12, chemoheterotrophic (repressed) growth; for level of RubisCO relative to wild-type CbbR: CH growth conditions
cbb promoter [2] = assay type: cell-based, Ralstonia eutropha; conditions: for Chemoheterotrophic β-galactosidase activity: Table 12, chemoheterotrophic (repressed) growth
[3] = Table 9, chemoautotrophic growth conditions
[4] = Table 12, chemoautotrophic (induced) growth

Molecule	effect of ATP on CbbR binding to cbb promoter probe (phosphorimage, in words) (cbb promoter [1]; in the presence of ATP)	effect of RuBP on CbbR binding to cbb promoter probe (phosphorimage, in words) (cbb promoter [1]; in the presence of RuBP)	Chemoautotrophic RubisCO activity (RubisCO; [3])	Chemoautotrophic RubisCO activity (RubisCO; [4])	Chemoheterotrophic RubisCO activity (RubisCO)	Chemoautotrophic β-galactosidase activity (cbb promoter [2]; [3])	Chemoautotrophic β-galactosidase activity (cbb promoter [2]; [4])	Chemoheterotrophic β-galactosidase activity (cbb promoter [2])	level of RubisCO relative to wild-type CbbR (RubisCO) [fold]
B1	no enhancement of binding	modest enhancement of binding	–	–	–	–	–	–	–
B2	–	–	106 nmol/min/mg of protein	123 nmol/min/mg of protein	5 nmol/min/mg of protein	5005 nmol/min/mg of protein	5005 nmol/min/mg of protein	303 nmol/min/mg of protein	–
B3	–	–	185 nmol/min/mg of protein	242 nmol/min/mg of protein	8 nmol/min/mg of protein	5909 nmol/min/mg of protein	6442 nmol/min/mg of protein	343 nmol/min/mg of protein	–
B4	–	–	118 nmol/min/mg of protein	158 nmol/min/mg of protein	14 nmol/min/mg of protein	3697 nmol/min/mg of protein	3879 nmol/min/mg of protein	617 nmol/min/mg of protein	–
B5	–	–	–	148 nmol/min/mg of protein	30 nmol/min/mg of protein	–	3939 nmol/min/mg of protein	1168 nmol/min/mg of protein	–
B6	–	–	162 nmol/min/mg of protein	259 nmol/min/mg of protein	2 nmol/min/mg of protein	6770 nmol/min/mg of protein	6770 nmol/min/mg of protein	53 nmol/min/mg of protein	–
B7	–	–	162 nmol/min/mg of protein	298 nmol/min/mg of protein	3 nmol/min/mg of protein	6777 nmol/min/mg of protein	6777 nmol/min/mg of protein	108 nmol/min/mg of protein	–
B8	–	–	–	305 nmol/min/mg of protein	33 nmol/min/mg of protein	–	5515 nmol/min/mg of protein	1597 nmol/min/mg of protein	330
B9	–	–	206 nmol/min/mg of protein	212 nmol/min/mg of protein	16 nmol/min/mg of protein	4672 nmol/min/mg of protein	5312 nmol/min/mg of protein	655 nmol/min/mg of protein	–
B10	–	–	–	115 nmol/min/mg of protein	53 nmol/min/mg of protein	–	4480 nmol/min/mg of protein	2311 nmol/min/mg of protein	530
B11	–	–	78 nmol/min/mg of protein	140 nmol/min/mg of protein	4 nmol/min/mg of protein	4626 nmol/min/mg of protein	5269 nmol/min/mg of protein	212 nmol/min/mg of protein	–
